According to PMC3393671:

What was measured:
[1] = biological target: ROP5 of T. gondii strain RH-YFP (isoforms not told apart) (UniProt F2YGR7); test: pull-down (quantitated Western blot); conditions: 25 µg protein/100 µl 1:1 bead suspension; RH-YFP strain T. gondii lysates; 3E2 antibody (anti-ROP5); GST signal subtracted; parent: est. 100; read off a plot
GST-Irga6-D164A (mouse) = GST-Irga6-D164A (mouse) (UniProt Q9QZ85); test: pull-down; GST-IRG fusion (25 or 50 µg per 100 µl 1:1 bead suspension) on Glutathione Sepharose 4B; postnuclear NP-40 lysate of RH-YFP T. gondii; o/n at 4°C; with or without 1 mM GDP; Western blot with mAb 3E2 (ROP5) or anti-ROP18 antiserum; GST-loaded beads as control
Chain of GST-Irga6-D164A (mouse) (Q9QZ85 1-411 D164A): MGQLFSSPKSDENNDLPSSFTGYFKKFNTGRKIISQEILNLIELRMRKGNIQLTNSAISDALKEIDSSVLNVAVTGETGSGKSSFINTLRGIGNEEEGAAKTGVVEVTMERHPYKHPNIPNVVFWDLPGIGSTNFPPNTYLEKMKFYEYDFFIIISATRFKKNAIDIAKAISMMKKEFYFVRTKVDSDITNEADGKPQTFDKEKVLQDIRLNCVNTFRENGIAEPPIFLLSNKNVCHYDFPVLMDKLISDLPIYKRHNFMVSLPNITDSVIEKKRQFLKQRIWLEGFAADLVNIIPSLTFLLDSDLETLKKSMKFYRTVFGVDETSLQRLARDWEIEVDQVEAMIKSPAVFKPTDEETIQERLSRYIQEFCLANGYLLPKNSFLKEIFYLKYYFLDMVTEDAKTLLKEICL

Chain of ROP5 of T. gondii strain RH-YFP (isoforms not told apart) (UniProt F2YGR7) (F2YGR7 25-549): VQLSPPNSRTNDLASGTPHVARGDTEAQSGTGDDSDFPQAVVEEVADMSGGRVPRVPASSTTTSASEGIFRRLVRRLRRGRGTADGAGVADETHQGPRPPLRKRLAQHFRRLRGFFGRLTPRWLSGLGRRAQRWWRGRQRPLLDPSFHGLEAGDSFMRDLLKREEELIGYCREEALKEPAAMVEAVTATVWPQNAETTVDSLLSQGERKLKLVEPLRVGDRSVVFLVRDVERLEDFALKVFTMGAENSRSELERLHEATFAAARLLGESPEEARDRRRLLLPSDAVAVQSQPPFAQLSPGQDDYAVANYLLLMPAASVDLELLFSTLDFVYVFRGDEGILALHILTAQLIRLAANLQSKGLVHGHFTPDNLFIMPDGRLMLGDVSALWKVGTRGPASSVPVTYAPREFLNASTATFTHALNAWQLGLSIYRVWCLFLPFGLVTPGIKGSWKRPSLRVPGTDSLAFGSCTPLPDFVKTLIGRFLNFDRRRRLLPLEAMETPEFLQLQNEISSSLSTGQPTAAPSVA
Chain of ROP5 of T. gondii strain RH-YFP (isoforms not told apart) (from UniProt F2YGR7 25-549) (natural protein) (F2YGR7 25-549): as above
Chain of GST-Irga6 (Q9QZ85 1-411, stated change not applied): as the sequence (Q9QZ85 1-411 D164A) above, with A164D counted along it

| Substance | percent of parent (% of wild-type intensity) [1] | percent of ROP5 binding blocked (against wt GST-Irga6) (GST-Irga6-D164A (mouse)) |
| --- | --- | --- |
| GST-Irga6 (from UniProt Q9QZ85) D206R | 68 | – |
| ROP5 of T. gondii strain RH-YFP (isoforms not told apart) (from UniProt F2YGR7 25-549) (natural protein) | – | > 95% |
